What was measured:
[1] = target: PRE (human metapneumovirus (hMPV), strain …, UniProt Q6WB98 19-489); assay: ELISA; pre-fusion F
[2] = target: POST (human metapneumovirus (hMPV), strain …, UniProt Q6WB98 19-489); assay: ELISA; post-fusion F
[3] = target: MPV pre-fusion F protein (conformationally stabilized, CAN97-83 MPV strain) (human metapneumovirus (hMPV), strain …, UniProt Q6WB98 19-489); assay: ELISA
MPV pre-fusion F protein (conformationally stabilized, CAN97-83 MPV strain), sequence (Q6WB98 19-489): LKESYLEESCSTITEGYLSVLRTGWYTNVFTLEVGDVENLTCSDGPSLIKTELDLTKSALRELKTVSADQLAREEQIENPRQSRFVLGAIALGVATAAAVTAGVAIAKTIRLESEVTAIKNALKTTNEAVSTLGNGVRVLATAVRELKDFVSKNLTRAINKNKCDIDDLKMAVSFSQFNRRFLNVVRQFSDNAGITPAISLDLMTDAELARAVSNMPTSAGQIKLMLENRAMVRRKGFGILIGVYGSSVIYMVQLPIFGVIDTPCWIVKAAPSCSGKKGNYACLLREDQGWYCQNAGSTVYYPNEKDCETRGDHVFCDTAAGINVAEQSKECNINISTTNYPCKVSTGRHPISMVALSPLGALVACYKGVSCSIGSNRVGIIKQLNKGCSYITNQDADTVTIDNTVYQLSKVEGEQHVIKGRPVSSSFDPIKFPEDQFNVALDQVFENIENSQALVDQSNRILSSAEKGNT

PRE, sequence (Q6WB98 19-489): as above
POST, sequence (Q6WB98 19-489): as above

Binder | EC50 [1] | EC50 [2] | EC50 [3]
MPE8 (antibody, V domains shown) VH: EVQLVESGGGLVKPGGSLRLSCAASGFTFSSYSMNWVRQAPGKGLEWVSSISASSSYSDYADSAKGRFTISRDNAKTSLFLQMNSLRAEDTAIYFCARARATGYSSITPYFDIWGQGTLVTVSS VL: QSVVTQPPSVSGAPGQRVTISCTGSSSNIGAGYDVHWYQQLPGTAPKLLIYDNNNRPSGVPDRFSASKSGTSASLAITGLQAEDEADYYCQSYDRSLSGVFGTGTKVTVL | 34.8 ng/mL | 769000 ng/mL | –
MPE33_S36A (antibody, V domains shown) VH: QVQLQESGPGLVKPSQTLSLTCTVSGDSISNGAYCWNWVRQPAGKGLEWIGRIYPIGNTNYNPSLKSRVTISLDTSKNQFSLKLASVTAADTAVYYCAREARIFEGYYYYYYGLDVWGQGTTVTVSS VL: EIVLTQSPATLSLSPGERATLSCRASQTISSYLAWYQQKPGQAPRLLISDVSKRATGIPARFSGSGSGTDFTLTISSLEPEDFAVYYCHQRSNWDTFGQGTKLEIK | – | – | 2.31 ng/mL
MPE33_C38Y (antibody, V domains shown) VH: QVQLQESGPGLVKPSQTLSLTCTVSGDSISNGSYYWNWVRQPAGKGLEWIGRIYPIGNTNYNPSLKSRVTISLDTSKNQFSLKLASVTAADTAVYYCAREARIFEGYYYYYYGLDVWGQGTTVTVSS VL: EIVLTQSPATLSLSPGERATLSCRASQTISSYLAWYQQKPGQAPRLLISDVSKRATGIPARFSGSGSGTDFTLTISSLEPEDFAVYYCHQRSNWDTFGQGTKLEIK | – | – | 2.5 ng/mL
MPE33_N34S_C38Y (antibody, V domains shown) VH: QVQLQESGPGLVKPSQTLSLTCTVSGDSISSGSYYWNWVRQPAGKGLEWIGRIYPIGNTNYNPSLKSRVTISLDTSKNQFSLKLASVTAADTAVYYCAREARIFEGYYYYYYGLDVWGQGTTVTVSS VL: EIVLTQSPATLSLSPGERATLSCRASQTISSYLAWYQQKPGQAPRLLISDVSKRATGIPARFSGSGSGTDFTLTISSLEPEDFAVYYCHQRSNWDTFGQGTKLEIK | – | – | 2.87 ng/mL
MPE33_N34S (antibody, V domains shown) VH: QVQLQESGPGLVKPSQTLSLTCTVSGDSISSGSYCWNWVRQPAGKGLEWIGRIYPIGNTNYNPSLKSRVTISLDTSKNQFSLKLASVTAADTAVYYCAREARIFEGYYYYYYGLDVWGQGTTVTVSS VL: EIVLTQSPATLSLSPGERATLSCRASQTISSYLAWYQQKPGQAPRLLISDVSKRATGIPARFSGSGSGTDFTLTISSLEPEDFAVYYCHQRSNWDTFGQGTKLEIK | – | – | 1.56 ng/mL
MPE33_N34Q (antibody, V domains shown) VH: QVQLQESGPGLVKPSQTLSLTCTVSGDSISQGSYCWNWVRQPAGKGLEWIGRIYPIGNTNYNPSLKSRVTISLDTSKNQFSLKLASVTAADTAVYYCAREARIFEGYYYYYYGLDVWGQGTTVTVSS VL: EIVLTQSPATLSLSPGERATLSCRASQTISSYLAWYQQKPGQAPRLLISDVSKRATGIPARFSGSGSGTDFTLTISSLEPEDFAVYYCHQRSNWDTFGQGTKLEIK | – | – | 1.96 ng/mL
MPE33_C38A (antibody, V domains shown) VH: QVQLQESGPGLVKPSQTLSLTCTVSGDSISNGSYAWNWVRQPAGKGLEWIGRIYPIGNTNYNPSLKSRVTISLDTSKNQFSLKLASVTAADTAVYYCAREARIFEGYYYYYYGLDVWGQGTTVTVSS VL: EIVLTQSPATLSLSPGERATLSCRASQTISSYLAWYQQKPGQAPRLLISDVSKRATGIPARFSGSGSGTDFTLTISSLEPEDFAVYYCHQRSNWDTFGQGTKLEIK | – | – | 1.51 ng/mL
MPE33_C38S (antibody, V domains shown) VH: QVQLQESGPGLVKPSQTLSLTCTVSGDSISNGSYSWNWVRQPAGKGLEWIGRIYPIGNTNYNPSLKSRVTISLDTSKNQFSLKLASVTAADTAVYYCAREARIFEGYYYYYYGLDVWGQGTTVTVSS VL: EIVLTQSPATLSLSPGERATLSCRASQTISSYLAWYQQKPGQAPRLLISDVSKRATGIPARFSGSGSGTDFTLTISSLEPEDFAVYYCHQRSNWDTFGQGTKLEIK | – | – | 2.39 ng/mL

Source: patent US20240034772A1 (published 2024)
